Data published in IntAct's records for PubMed 18832153.

B1: Structural maintenance of chromosomes protein 1A (Homo sapiens), Q14683 (parent)
chain: MGFLKLIEIENFKSYKGRQIIGPFQRFTAIIGPNGSGKSNLMDAISFVLGEKTSNLRVKTLRDLIHGAPVGKPAANRAFVSMVYSEEGAEDRTFARVIVGGSSEYKINNKVVQLHEYSEELEKLGILIKARNFLVFQGAVESIAMKNPKERTALFEEISRSGELAQEYDKRKKEMVKAEEDTQFNYHRKKNIAAERKEAKQEKEEADRYQRLKDEVVRAQVQLQLFKLYHNEVEIEKLNKELASKNKEIEKDKKRMDKVEDELKEKKKELGKMMREQQQIEKEIKEKDSELNQKRPQYIKAKENTSHKIKKLEAAKKSLQNAQKHYKKRKGDMDELEKEMLSVEKARQEFEERMEEESQSQGRDLTLEENQVKKYHRLKEEASKRAATLAQELEKFNRDQKADQDRLDLEERKKVETEAKIKQKLREIEENQKRIEKLEEYITTSKQSLEEQKKLEGELTEEVEMAKRRIDEINKELNQVMEQLGDARIDRQESSRQQRKAEIMESIKRLYPGSVYGRLIDLCQPTQKKYQIAVTKVLGKNMDAIIVDSEKTGRDCIQYIKEQRGEPETFLPLDYLEVKPTDEKLRELKGAKLVIDVIRYEPPHIKKALQYACGNALVCDNVEDARRIAFGGHQRHKTVALDGTLFQKSGVISGGASDLKAKARRWDEKAVDKLKEKKERLTEELKEQMKAKRKEAELRQVQSQAHGLQMRLKYSQSDLEQTKTRHLALNLQEKSKLESELANFGPRINDIKRIIQSREREMKDLKEKMNQVEDEVFEEFCREIGVRNIREFEEEKVKRQNEIAKKRLEFENQKTRLGIQLDFEKNQLKEDQDKVHMWEQTVKKDENEIEKLKKEEQRHMKIIDETMAQLQDLKNQHLAKKSEVNDKNHEMEEIRKKLGGANKEMTHLQKEVTAIETKLEQKRSDRHNLLQACKMQDIKLPLSKGTMDDISQEEGSSQGEDSVSGSQRISSIYAREALIEIDYGDLCEDLKDAQAEEEIKQEMNTLQQKLNEQQSVLQRIAAPNMKAMEKLESVRDKFQETSDEFEAARKRAKKAKQAFEQIKKERFDRFNACFESVATNIDEIYKALSRNSSAQAFLGPENPEEPYLDGINYNCVAPGKRFRPMDNLSGGEKTVAALALLFAIHSYKPAPFFVLDEIDAALDNTNIGKVANYIKEQSTCNFQAIVISLKEEFYTKAESLIGVYPEQGDCVISKVLTFDLTKYPDANPNPNEQ
partner: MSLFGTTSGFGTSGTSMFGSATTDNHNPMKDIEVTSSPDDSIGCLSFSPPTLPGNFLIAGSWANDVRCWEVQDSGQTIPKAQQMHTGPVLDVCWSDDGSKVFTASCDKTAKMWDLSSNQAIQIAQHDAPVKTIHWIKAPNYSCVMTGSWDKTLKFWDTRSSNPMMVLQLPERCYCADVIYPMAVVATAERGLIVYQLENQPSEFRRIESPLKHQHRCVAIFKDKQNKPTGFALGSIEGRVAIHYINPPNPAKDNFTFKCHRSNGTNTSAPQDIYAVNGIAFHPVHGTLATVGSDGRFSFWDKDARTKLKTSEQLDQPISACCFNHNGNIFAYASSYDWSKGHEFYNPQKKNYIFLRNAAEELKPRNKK

Variants of: B1
Conditions: with rae1l_human RAE1, P78406

| Variant | effect of a mutation on the interaction |
| --- | --- |
| S957A | decreasing interaction |
| S966A | decreasing interaction |
